Results on 4 molecules are retold here after paper PMC12212138, “Crystal structure and mutagenesis of a nucleic acid–binding BRCT domain in human PARP4”.

As a reminder, the Kd is a measure of binding affinity in units of concentration.

For series [1], the target named is T1, PARP4 BRCT-WGR-CAT WT (human, UniProt Q9UKK3 1-573).
T1 sequence: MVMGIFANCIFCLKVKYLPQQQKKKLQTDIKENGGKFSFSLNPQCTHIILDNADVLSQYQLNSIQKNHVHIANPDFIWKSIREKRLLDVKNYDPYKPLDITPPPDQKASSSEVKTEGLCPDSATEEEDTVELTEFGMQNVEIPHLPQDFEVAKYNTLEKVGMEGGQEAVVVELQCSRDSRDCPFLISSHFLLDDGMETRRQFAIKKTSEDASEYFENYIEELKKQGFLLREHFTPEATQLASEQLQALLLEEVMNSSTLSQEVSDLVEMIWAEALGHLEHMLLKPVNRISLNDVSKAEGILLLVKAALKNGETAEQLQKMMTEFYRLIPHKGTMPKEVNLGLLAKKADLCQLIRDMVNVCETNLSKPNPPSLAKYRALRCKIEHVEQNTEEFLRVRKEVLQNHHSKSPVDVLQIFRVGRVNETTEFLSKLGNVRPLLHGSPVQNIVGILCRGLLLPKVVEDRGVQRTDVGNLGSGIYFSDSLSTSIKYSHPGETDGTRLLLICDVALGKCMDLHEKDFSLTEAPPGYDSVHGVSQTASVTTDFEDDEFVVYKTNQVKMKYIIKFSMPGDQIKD
The series can be described thus: EMSA; 20 nM probe; FP: 50 mM Tris pH 7.5, 50 mM NaCl, 1 mM MgCl2, 0.05% NP40, 2 mM DTT, 5% glycerol, 25 ug/ml BSA, room temp 30 min; EMSA: 50 mM Tris pH 7.5, 50 mM NaCl, 4% Ficoll PM400, 0.05% NP40, 2 mM DTT, 0-18 uM protein, room temp 30 min, gel at 4 C. To be noted: protein: recombinant; tags: N-terminal His-SUMO removed by TEV; label: 5'-6-FAM; single strand, predicted fold.

Series [2] has as its target T1, PARP4 BRCT-WGR-CAT WT. The series can be described thus: FP; 15 nM probe; FP: 50 mM Tris pH 7.5, 50 mM NaCl, 1 mM MgCl2, 0.05% NP40, 2 mM DTT, 5% glycerol, 25 ug/ml BSA, room temp 30 min; EMSA: 50 mM Tris pH 7.5, 50 mM NaCl, 4% Ficoll PM400, 0.05% NP40, 2 mM DTT, 0-18 uM protein, room temp 30 min, gel at 4 C. The settings on record: protein: recombinant, tags: N-terminal His-SUMO removed by TEV. (In general: Mobility shift assays separate free from complexed probe on a gel.)

Another series has as its target T2, PARP4 BRCT WT (human, UniProt Q9UKK3 1-100).
T2 sequence: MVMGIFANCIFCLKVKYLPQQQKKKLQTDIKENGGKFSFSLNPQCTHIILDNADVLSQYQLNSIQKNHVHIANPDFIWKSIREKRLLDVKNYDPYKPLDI
The experiment in a line: FP; 3 nM probe; FP: 50 mM Tris pH 7.5, 50 mM NaCl, 1 mM MgCl2, 0.05% NP40, 2 mM DTT, 5% glycerol, 25 ug/ml BSA, room temp 30 min; EMSA: 50 mM Tris pH 7.5, 50 mM NaCl, 4% Ficoll PM400, 0.05% NP40, 2 mM DTT, 0-18 uM protein, room temp 30 min, gel at 4 C. To be noted: protein: recombinant; tags: N-terminal His-SUMO removed by TEV; label: 5'-6-FAM; predicted intramolecular fold.

B1: Probe 2 (structured_RNA)
RNA: GUCAUCAAACCACCUCUCUGGGUUGUUCGAGAC
For the molecule B1, the Kd was 11 ± 3 µM with PARP4 BRCT-WGR-CAT WT [1] and 44 ± 13 µM with PARP4 BRCT-WGR-CAT WT [2] (label: 5'-6-FAM, single strand, predicted fold).

B2: vtRNA1-1 (structured_RNA)
RNA: GGCUGGCUUUAGCUCAGCGGUUACUUCGACAGUUCUUUAAUUGAAACAAGCAACCUGUCUGGGUUGUUCGAGACCCGCGGGCGCUCUCCAGUCCUUUU
For B2, in the series with PARP4 BRCT WT, the Kd was 13 ± 4 µM.

B3: vtRNA1-2 (structured_RNA)
RNA: GGCUGGCUUUAGCUCAGCGGUUACUUCGAGUACAUUGUAACCACCUCUCUGGGUGGUUCGAGACCCGCGGGUGCUUUCCAGCUCUUUU
For the molecule B3, the Kd with PARP4 BRCT WT was 20 ± 5 µM.

B4: Probe 1 (dsRNA)
RNA 1: GGCUGGCUUUAGCUCAGCGG
RNA 2: CCGCGGGCGCUCUCCAGCCCUCUU
On to B4, for which, in the series with PARP4 BRCT-WGR-CAT WT [2] (label: 5'-6-FAM on strand 1, two-strand partial duplex), the equilibrium dissociation constant (Kd) stood at 25 ± 10 µM.
